Experimental data reported in paper PMC6442233, “SAR and molecular mechanism studies of monoamine oxidase inhibition by selected chalcone analogs” (Journal of Enzyme Inhibition and Medicinal Chemistry, 2019).

B1: human MAO-A (Homo sapiens) (protein)
chain: MENQEKASIAGHMFDVVVIGGGISGLSAAKLLTEYGVSVLVLEARDRVGGRTYTIRNEHVDYVDVGGAYVGPTQNRILRLSKELGIETYKVNVSERLVQYVKGKTYPFRGAFPPVWNPIAYLDYNNLWRTIDNMGKEIPTDAPWEAQHADKWDKMTMKELIDKICWTKTARRFAYLFVNINVTSEPHEVSALWFLWYVKQCGGTTRIFSVTNGGQERKFVGGSGQVSERIMDLLGDQVKLNHPVTHVDQSSDNIIIETLNHEHYECKYVINAIPPTLTAKIHFRPELPAERNQLIQRLPMGAVIKCMMYYKEAFWKKKDYCGCMIIEDEDAPISITLDDTKPDGSLPAIMGFILARKADRLAKLHKEIRKKKICELYAKVLGSQEALHPVHYEEKNWCEEQYSGGCYTAYFPPGIMTQYGRVIRQPVGRIFFAGTETATKWSGYMEGAVEAGERAAREVLNGLGKVTEKDIWVQEPESKDVPAVEITHTFWERNLPSVSGLLKIIGFSTSVTALGFVLYKYKLLPRS
notes: purchased Sigma-Aldrich
B2: human MAO-B (Homo sapiens) (protein)
chain: MSNKCDVVVVGGGISGMAAAKLLHDSGLNVVVLEARDRVGGRTYTLRNQKVKYVDLGGSYVGPTQNRILRLAKELGLETYKVNEVERLIHHVKGKSYPFRGPFPPVWNPITYLDHNNFWRTMDDMGREIPSDAPWKAPLAEEWDNMTMKELLDKLCWTESAKQLATLFVNLCVTAETHEVSALWFLWYVKQCGGTTRIISTTNGGQERKFVGGSGQVSERIMDLLGDRVKLERPVIYIDQTRENVLVETLNHEMYEAKYVISAIPPTLGMKIHFNPPLPMMRNQMITRVPLGSVIKCIVYYKEPFWRKKDYCGTMIIDGEEAPVAYTLDDTKPEGNYAAIMGFILAHKARKLARLTKEERLKKLCELYAKVLGSLEALEPVHYEEKNWCEEQYSGGCYTTYFPPGILTQYGRVLRQPVDRIYFAGTETATHWSGYMEGAVEAGERAAREILHAMGKIPEDEIWQSEPESVDVPAQPITTTFLERHLPSVPGLLRLIGLTTIFSATALGFLAHKRGLLVRV
notes: purchased Sigma-Aldrich

How the values were obtained:
[1] = substrate: CN1CC=C(c2cccn2C)CC1; test: Spectrophotometric MAO-A assay with MMTP as substrate; assay type: biochemical, human; details: other: MMTP as substrate; 37.0 °C
[2] = substrate: CN1CC=C(c2cccn2C)CC1; test: Spectrophotometric MAO-B assay with MMTP as substrate; assay type: biochemical, human; details: other: MMTP as substrate; 37.0 °C

Protein | Km [1] [µM] | Km [2] [µM]
B1 | 88 | 
B2 |  | 101
